The conditions of the data set: Escherichia coli (strain K12); pH 7.8; 25 °C; Urea; Absorbance; Potassium phosphate 10 mM; transition: 3; whole UniProt chain shown.

From FireProtDB (doi:10.1021/bi00369a002) come the findings set out here.

Where “and” joins values, the source holds several entries; their conditions need not be identical. Equal values may be shown once.

B1: Tryptophan synthase alpha chain wild type, P0A877 (protein)
chain: MERYESLFAQLKERKEGAFVPFVTLGDPGIEQSLKIIDTLIEAGADALELGIPFSDPLADGPTIQNATLRAFAAGVTPAQCFEMLALIRQKHPTIPIGLLMYANLVFNKGIDEFYAQCEKVGVDSVLVADVPVEESAPFRQAALRHNVAPIFICPPNADDDLLRQIASYGRGYTYLLSRAGVTGAENRAALPLNHLVAKLKEYNAAPPLQGFGISAPDQVKAAIDAGAAGAISGSAIVKIIEQHINEPEKMLAALKVFVQPMKAATRS
For B1, the denaturant m value was 2.2 kcal/mol/M and 1.2 kcal/mol/M; the “denaturant midpoint (higher = more stable)” value was 2.62 M and 4.18 M.
